Experimental data reported in patent US7183387 (Genentech, dated 2007).

T1: human FcγRIIA-Arg131 α subunit extracellular domain-His6-GST fusion (human, UniProt P12318 34-217)
T1 construct: extracellular domain; also called FcγRIIA-R131; not shown: glutathione S transferase (GST)
T1 sequence: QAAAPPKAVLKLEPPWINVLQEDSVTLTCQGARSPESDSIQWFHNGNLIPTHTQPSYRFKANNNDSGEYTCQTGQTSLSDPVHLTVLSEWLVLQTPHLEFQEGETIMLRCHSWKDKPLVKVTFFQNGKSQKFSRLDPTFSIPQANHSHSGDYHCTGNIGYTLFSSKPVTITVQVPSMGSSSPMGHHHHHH

T2: human FcγRIIB α subunit extracellular domain-His6-GST fusion (human, UniProt P31994 43-217)
T2 construct: extracellular domain; also called CD32; not shown: glutathione S transferase (GST)
T2 sequence: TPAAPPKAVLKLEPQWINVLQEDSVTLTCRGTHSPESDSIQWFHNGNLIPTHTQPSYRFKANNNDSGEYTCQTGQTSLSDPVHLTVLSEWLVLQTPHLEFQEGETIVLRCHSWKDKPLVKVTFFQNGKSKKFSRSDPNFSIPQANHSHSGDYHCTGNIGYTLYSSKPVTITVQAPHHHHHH

T3: human FcγRIIB α subunit extracellular domain-6His-GST fusion (human, UniProt P31994 43-217)
T3 construct: not shown: glutathione S-transferase (GST)
T3 sequence: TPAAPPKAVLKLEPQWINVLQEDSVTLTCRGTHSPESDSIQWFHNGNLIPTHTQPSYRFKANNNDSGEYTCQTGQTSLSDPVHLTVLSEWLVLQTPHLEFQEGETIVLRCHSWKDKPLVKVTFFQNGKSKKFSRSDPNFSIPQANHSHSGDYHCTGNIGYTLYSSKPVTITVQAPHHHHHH

T4: human FcγRIIA-R131 α subunit extracellular domain-6His-GST fusion (human, UniProt P12318 34-217)
T4 construct: also called FcγRIIA-Arg131; not shown: glutathione S-transferase (GST)
T4 sequence: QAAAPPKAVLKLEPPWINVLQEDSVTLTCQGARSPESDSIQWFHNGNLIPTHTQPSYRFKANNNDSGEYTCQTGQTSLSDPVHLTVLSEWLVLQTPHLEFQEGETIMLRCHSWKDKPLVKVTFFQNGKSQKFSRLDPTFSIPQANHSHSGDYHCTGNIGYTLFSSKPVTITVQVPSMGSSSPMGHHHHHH

T5: human FcγRIIA-R131 α subunit extracellular domain-His6-GST fusion protein (human, UniProt P12318 34-217)
T5 construct: ECD-6His-GST fusion made in 293 cells, coated on the plate; also called FcγRIIA-Arg131; not shown: glutathione S-transferase (GST)
T5 sequence: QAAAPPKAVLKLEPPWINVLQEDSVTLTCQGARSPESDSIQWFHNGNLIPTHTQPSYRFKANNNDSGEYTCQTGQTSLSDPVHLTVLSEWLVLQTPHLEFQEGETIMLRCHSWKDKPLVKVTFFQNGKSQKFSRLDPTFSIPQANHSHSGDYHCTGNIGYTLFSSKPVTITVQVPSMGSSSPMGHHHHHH

T6: human FcγRIIA-H131 α subunit extracellular domain-His6-GST fusion protein (human, UniProt P12318 34-217)
T6 construct: also called FcγRIIA-His131; not shown: glutathione S-transferase (GST)
T6 sequence: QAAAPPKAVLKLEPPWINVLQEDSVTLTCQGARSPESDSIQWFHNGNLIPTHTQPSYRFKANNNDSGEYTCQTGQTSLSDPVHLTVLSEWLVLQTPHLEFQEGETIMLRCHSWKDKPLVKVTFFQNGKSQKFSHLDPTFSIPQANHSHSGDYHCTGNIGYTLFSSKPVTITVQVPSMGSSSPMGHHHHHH


Experiments:
[1] = molecular target: T7, human neonatal Fc receptor (FcRn), biotinylated (human, UniProt P55899 24-297; P61769 21-119, biotinylated (biotin-X-NHS)); assay: FcRn ELISA, pH 6.0;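 also: Streptavidin-captured FcRn plates, IgG variants titrated 2 h at pH 6.0, peroxidase anti-human IgG read at 450 nm, variant over standard concentration at the standard curve mid-point absorbance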
T7 construct: captured on streptavidin plates

[2] = molecular target: T8, human FcγRIA α subunit extracellular domain-His6-GST fusion (human, UniProt P12314 16-292); assay: FcγRI ELISA and THP-1 cells, averaged
T8 construct: extracellular domain; also called GST-FcγRIA; CD64; not shown: glutathione S transferase (GST)
T8 sequence (P12314 other isoform, or with tags, fused parts or gaps): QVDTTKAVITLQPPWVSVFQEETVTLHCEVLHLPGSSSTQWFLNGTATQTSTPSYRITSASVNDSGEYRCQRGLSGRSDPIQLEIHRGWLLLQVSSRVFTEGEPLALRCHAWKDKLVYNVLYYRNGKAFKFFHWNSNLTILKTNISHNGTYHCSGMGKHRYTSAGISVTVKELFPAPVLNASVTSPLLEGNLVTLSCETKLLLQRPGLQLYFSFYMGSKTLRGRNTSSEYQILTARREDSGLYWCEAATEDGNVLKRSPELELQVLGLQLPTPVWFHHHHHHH

[3] = molecular target: T9, human FcγRIIIA-Phe158 α subunit extracellular domain-His6-GST fusion (human, UniProt P08637 17-208); assay: hexamer ELISA
T9 construct: extracellular domain; also called FcγRIIIA-F158; CD16; not shown: glutathione S transferase (GST)
T9 sequence (P08637 other isoform, or with tags, fused parts or gaps): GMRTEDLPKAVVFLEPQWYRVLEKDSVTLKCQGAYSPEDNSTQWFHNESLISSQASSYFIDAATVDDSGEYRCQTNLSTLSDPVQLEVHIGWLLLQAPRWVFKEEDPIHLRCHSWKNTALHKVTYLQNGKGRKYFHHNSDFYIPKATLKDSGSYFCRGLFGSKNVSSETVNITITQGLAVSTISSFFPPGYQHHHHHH

[4] = molecular target: T1, human FcγRIIA-Arg131 α subunit …; assay: hexamer ELISA
[5] = molecular target: T2, human FcγRIIB α subunit extracellular …; assay: hexamer ELISA
[6] = molecular target: T9, human FcγRIIIA-Phe158 α subunit …; assay: hexamer ELISA; remark: listed apart in the source
[7] = molecular target: T3, human FcγRIIB α subunit extracellular …; assay: ELISA, IgG:IgE hexamers on receptor-GST
[8] = molecular target: T10, human FcγRIIIA-F158 α subunit extracellular domain-6His-GST fusion (human, UniProt P08637 17-208); assay: ELISA, IgG:IgE hexamers on receptor-GST
T10 construct: also called FcγRIIIA-Phe158; not shown: glutathione S-transferase (GST)
T10 sequence (P08637 other isoform, or with tags, fused parts or gaps, form in doubt): as the sequence (P08637 other isoform, or with tags, fused parts or gaps) above

[9] = molecular target: T4, human FcγRIIA-R131 α subunit …; assay: ELISA, IgG:IgE hexamers on receptor-GST
[10] = molecular target: T11, human FcγRI (FcγRIA) α subunit extracellular domain-His6-GST fusion (human, UniProt P12314 16-292); assay: monomeric IgG; ELISA on receptor-GST and THP-1 cells, averaged
T11 construct: Reported FcγRI values are the average of the plate ELISA on this fusion and of a flow cytometry assay on THP-1 cells; also called GST-FcγRIA; not shown: glutathione S-transferase (GST)
T11 sequence (P12314 other isoform, or with tags, fused parts or gaps, form in doubt): as the sequence (P12314 other isoform, or with tags, fused parts or gaps) above

[11] = molecular target: T5, human FcγRIIA-R131 α subunit …; assay: ELISA, IgG:IgE hexamer on coated FcγRIIA-R131-GST; value carried over from Table 6, 7 or 8
[12] = molecular target: T6, human FcγRIIA-H131 α subunit …; assay: ELISA, IgG:IgE hexamer on coated FcγRIIA-H131-GST
[13] = molecular target: T5, human FcγRIIA-R131 α subunit …; assay: ELISA, IgG:IgE hexamer on coated FcγRIIA-R131-GST; separate assays run together with the H131 assays
[14] = molecular target: T6, human FcγRIIA-H131 α subunit …; assay: ELISA; binding ratio on FcγRIIA-H131 divided by that on FcγRIIA-R131

Row | ratio to native IgG1 [7] | ratio to native IgG1 [8] | ratio to native IgG1 [9] | ratio to native IgG1 [10] | Binder | other results
1 |  |  |  |  | anti-IgE E27 IgG1 Glu293Ala (antibody) heavy: not shown light: DIQLTQSPSSLSASVGDRVTITCRASKPVDGEGDSYLNWYQQKPGKAPKLLIYAASYLESGVPSRFSGSGSGTDFTLTISSLQPEDFATYYCQQSHEDPYTFGQGTKVEIKRTVAAPSVFIFPPSDEQLKSGTASVVCLLNNFYPREAKVQWKVDNALQSGNSQESVTEQDSKDSTYSLSSTLTLSKADYEKHKVYACEVTHQGLSSPVTKSFNRGEC | ratio to native IgG1 [1]: 0.85 ratio; ratio to native IgG1 [2]: 1.11 ratio; reduction in binding against native IgG1 [3]: 70%; ratio to native IgG1 [4]: 1.08 ratio; ratio to native IgG1 [5]: 1.07 ratio; ratio to native IgG1 [6]: 0.31 ratio
2 |  |  |  |  | anti-IgE E27 IgG1 Tyr296Phe (antibody) heavy: not shown light: DIQLTQSPSSLSASVGDRVTITCRASKPVDGEGDSYLNWYQQKPGKAPKLLIYAASYLESGVPSRFSGSGSGTDFTLTISSLQPEDFATYYCQQSHEDPYTFGQGTKVEIKRTVAAPSVFIFPPSDEQLKSGTASVVCLLNNFYPREAKVQWKVDNALQSGNSQESVTEQDSKDSTYSLSSTLTLSKADYEKHKVYACEVTHQGLSSPVTKSFNRGEC | ratio to native IgG1 [1]: 0.79 ratio; ratio to native IgG1 [2]: 1.03 ratio; reduction in binding against native IgG1 [3]: 50%; ratio to native IgG1 [4]: 0.97 ratio; ratio to native IgG1 [5]: 0.86 ratio; ratio to native IgG1 [6]: 0.55 ratio
3 | 1.15 | 1.08 | 1.05 | 1.25 | E27 IgG1 variant K290(307)R (antibody, also called IG2 78) heavy: not shown light: DIQLTQSPSSLSASVGDRVTITCRASKPVDGEGDSYLNWYQQKPGKAPKLLIYAASYLESGVPSRFSGSGSGTDFTLTISSLQPEDFATYYCQQSHEDPYTFGQGTKVEIKRTVAAPSVFIFPPSDEQLKSGTASVVCLLNNFYPREAKVQWKVDNALQSGNSQESVTEQDSKDSTYSLSSTLTLSKADYEKHKVYACEVTHQGLSSPVTKSFNRGEC | 
4 |  |  |  |  | anti-IgE E27 IgG1 variant Val305Ala (antibody, also called V305(324)A; IG2 40) heavy: not shown light: DIQLTQSPSSLSASVGDRVTITCRASKPVDGEGDSYLNWYQQKPGKAPKLLIYAASYLESGVPSRFSGSGSGTDFTLTISSLQPEDFATYYCQQSHEDPYTFGQGTKVEIKRTVAAPSVFIFPPSDEQLKSGTASVVCLLNNFYPREAKVQWKVDNALQSGNSQESVTEQDSKDSTYSLSSTLTLSKADYEKHKVYACEVTHQGLSSPVTKSFNRGEC | ratio of binding of the variant to that of native IgG1 [11]: 1.12 ratio (variant/native IgG1); ratio of binding of the variant to that of native IgG1 [12]: 1.06 ratio (variant/native IgG1); ratio of binding of the variant to that of native IgG1 [13]: 1 ratio (variant/native IgG1); H131/R131 [14]: 1.08 ratio (H131 value/R131 value)
5 | 1.2 | 1.3 | 1.1 | 1.14 | E27 IgG1 variant K290(307)E (antibody, also called IG2 77) heavy: not shown light: DIQLTQSPSSLSASVGDRVTITCRASKPVDGEGDSYLNWYQQKPGKAPKLLIYAASYLESGVPSRFSGSGSGTDFTLTISSLQPEDFATYYCQQSHEDPYTFGQGTKVEIKRTVAAPSVFIFPPSDEQLKSGTASVVCLLNNFYPREAKVQWKVDNALQSGNSQESVTEQDSKDSTYSLSSTLTLSKADYEKHKVYACEVTHQGLSSPVTKSFNRGEC | 
6 | 1.07 | 1.26 | 1.09 | 1.11 | E27 IgG1 variant K334(353)H (antibody) heavy: not shown light: DIQLTQSPSSLSASVGDRVTITCRASKPVDGEGDSYLNWYQQKPGKAPKLLIYAASYLESGVPSRFSGSGSGTDFTLTISSLQPEDFATYYCQQSHEDPYTFGQGTKVEIKRTVAAPSVFIFPPSDEQLKSGTASVVCLLNNFYPREAKVQWKVDNALQSGNSQESVTEQDSKDSTYSLSSTLTLSKADYEKHKVYACEVTHQGLSSPVTKSFNRGEC | 
7 | 1.23 | 1.42 | 1.11 | 1.23 | E27 IgG1 variant A339(359)T (antibody, also called IG2 273) heavy: not shown light: DIQLTQSPSSLSASVGDRVTITCRASKPVDGEGDSYLNWYQQKPGKAPKLLIYAASYLESGVPSRFSGSGSGTDFTLTISSLQPEDFATYYCQQSHEDPYTFGQGTKVEIKRTVAAPSVFIFPPSDEQLKSGTASVVCLLNNFYPREAKVQWKVDNALQSGNSQESVTEQDSKDSTYSLSSTLTLSKADYEKHKVYACEVTHQGLSSPVTKSFNRGEC | 
8 |  |  |  |  | anti-IgE E27 IgG1 variant Thr307Ala (antibody, also called T307(326)A; IG2 41) heavy: not shown light: DIQLTQSPSSLSASVGDRVTITCRASKPVDGEGDSYLNWYQQKPGKAPKLLIYAASYLESGVPSRFSGSGSGTDFTLTISSLQPEDFATYYCQQSHEDPYTFGQGTKVEIKRTVAAPSVFIFPPSDEQLKSGTASVVCLLNNFYPREAKVQWKVDNALQSGNSQESVTEQDSKDSTYSLSSTLTLSKADYEKHKVYACEVTHQGLSSPVTKSFNRGEC | ratio of binding of the variant to that of native IgG1 [11]: 1.07 ratio (variant/native IgG1); ratio of binding of the variant to that of native IgG1 [12]: 1.18 ratio (variant/native IgG1); ratio of binding of the variant to that of native IgG1 [13]: 1.28 ratio (variant/native IgG1); H131/R131 [14]: 0.94 ratio (H131 value/R131 value)
9 | 1.05 | 1.31 | 1.08 | 1.15 | E27 IgG1 variant K334(353)Y (antibody) heavy: not shown light: DIQLTQSPSSLSASVGDRVTITCRASKPVDGEGDSYLNWYQQKPGKAPKLLIYAASYLESGVPSRFSGSGSGTDFTLTISSLQPEDFATYYCQQSHEDPYTFGQGTKVEIKRTVAAPSVFIFPPSDEQLKSGTASVVCLLNNFYPREAKVQWKVDNALQSGNSQESVTEQDSKDSTYSLSSTLTLSKADYEKHKVYACEVTHQGLSSPVTKSFNRGEC | 
10 |  |  |  |  | anti-IgE E27 IgG1 variant Ser267Ala/His268Ala (antibody, also called S267(280)A H268(281)A; IG2 96) heavy: not shown light: DIQLTQSPSSLSASVGDRVTITCRASKPVDGEGDSYLNWYQQKPGKAPKLLIYAASYLESGVPSRFSGSGSGTDFTLTISSLQPEDFATYYCQQSHEDPYTFGQGTKVEIKRTVAAPSVFIFPPSDEQLKSGTASVVCLLNNFYPREAKVQWKVDNALQSGNSQESVTEQDSKDSTYSLSSTLTLSKADYEKHKVYACEVTHQGLSSPVTKSFNRGEC | ratio of binding of the variant to that of native IgG1 [11]: 1.41 ratio (variant/native IgG1); ratio of binding of the variant to that of native IgG1 [12]: 1.02 ratio (variant/native IgG1); ratio of binding of the variant to that of native IgG1 [13]: 1.57 ratio (variant/native IgG1); H131/R131 [14]: 0.65 ratio (H131 value/R131 value)
11 | 0.91 | 1.07 | 0.94 | 1.16 | E27 IgG1 variant K334(353)W (antibody) heavy: not shown light: DIQLTQSPSSLSASVGDRVTITCRASKPVDGEGDSYLNWYQQKPGKAPKLLIYAASYLESGVPSRFSGSGSGTDFTLTISSLQPEDFATYYCQQSHEDPYTFGQGTKVEIKRTVAAPSVFIFPPSDEQLKSGTASVVCLLNNFYPREAKVQWKVDNALQSGNSQESVTEQDSKDSTYSLSSTLTLSKADYEKHKVYACEVTHQGLSSPVTKSFNRGEC | 
